The values that follow come from paper doi:10.1101/2024.12.30.629670.

In general, stoichiometry N refers to the number of molecules, sites or subunits per partner or assembly.

For the assay, the target named is AVRPM3^b2/c2 lacking the signal peptide, C-terminally FLAG- or HA-tagged (Blumeria graminis f.sp. tritici). The assay can be described thus: cross-linking.

Values joined by “and” are separate entries in the source; they are usually repeats but may differ in a detail not shown here. Equal values may be shown once.

Take “AVRPM3^b2/c2 lacking the signal peptide, C-terminally FLAG- or HA-tagged (natural protein)”: the stoichiometry N was 2 and 3.
